Experimental data taken from US12533399B2, “Composition comprising tTF-NGR for use in treating soft-tissue sarcoma” (ANTUREC PHARMACEUTICALS GMBH, priority 2020, dated 2026).

How the values were obtained:
HUVEC = test: PS upregulation on HUVEC cell membranes, flow cytometry with annexin V-FITC; assay type: cell-based, human
Method: FIG. 4: illustration of the synergistic activity of tTF-NGR and Trabectedin in human vascular endothelial cells (HUVEC). […] PS is detected by the fluorescent PS-binding annexin V-FITC.
This effect is specifically dependent on the presence of PS as it can be completely abolished by masking PS via preincubation with annexin V.

[1] = tested on: HT1080 human sarcoma cells; test: PS upregulation on HT1080 sarcoma cells; assay type: cell-based; settings: Trabectedin 10 nM, 8 h; 6 experiments; p=0.001 vs non-Trabectedin control
Method: FIG. 5: illustration of the synergistic activity of tTF-NGR and Trabectedin in HT1080 human sarcoma cells. […] Means+standard error (p value=0.001). Propidiumiodide was used as an internal necrosis control. […] Means of 4 experiments+standard error and p-values.
As in tumor tissues part of the inner vascular cell layer of the neovasculature is not formed by endothelial cells, but also by tumor cells, which is termed “vascular mimicry”, analog experiments were also performed with HT1080 human sarcoma cells instead of HUVECs (see FIG. 5).

[2] = tested on: xenotransplants of human tumors; test: Preclinical therapeutic activity in xenotransplants of human tumors; assay type: in vivo
Method: (§1) These fusion proteins were tested in vitro and in vivo for essential therapeutic properties, such as pro-coagulatory activity, specific binding to their respective target molecules on stimulated endothelial cells (EC) or pericytes, in vivo intratumoral accumulation, in vivo intratumoral activation of coagulation, tumor vascular occlusion and inhibition of blood flow, pharmacodynamic properties including therapeutic antitumor activity in xenotransplants of human tumors from different histologic origin, and finally rodent as well as non-rodent animal safety and toxicology. […] Preclinical therapeutic activity of tTF-NGR was independent of tumor histology (e.g. melanoma, lung, breast, sarcoma, glioblastoma).

[3] = Clinical phase I study of tTF-NGR: pharmacokinetics; assay type: in vivo, human; settings: patients
Method: (§2) A clinical phase I trial was performed (EudraCT-No.: 2016-003042-85; NCT02902237) with tTF-NGR applied as 1-hour infusion solved in 0.9% NaCl via a central venous line in late stage cancer patients. This trial was a first-in-class trial, which was guided by repeated contrast-enhanced ultrasound (CEUS) and MRI to assess for blood flow decrease in tumor signal lesions. A “5-day q day 22” schedule was used in the study design.

[4] = tested on: late stage solid tumor and lymphoma patients; test: Clinical phase I study of tTF-NGR: DLT, safety, response; assay type: in vivo, human
Method: as §2
This sensitive laboratory DLT was fast reversible and allows early monitoring for subsequent dose adjustment in future trials. […] Thus, the trial was completed with a recommended dose for phase II (RPIID) at 3 mg/m^2/day×5, q d 22. The investigational medicinal product (IMP) is given via a PORT central venous access in 100 mL 0.9% NaCl over a rate-controlled infusion with a 1-hour duration.
(§3) The tumor blood flow inhibition was up to >1-log-step. […] In none of the patients treated so far a CR or a PR could be observed.

CD13 = target: T1, CD13 (Homo sapiens, UniProt P15144); test: Binding of tTF-NGR to its target on growing endothelial cells; assay type: cell-based
T1 construct: endogenous in cells; host or cells: growing / stimulated endothelial cells (EC)
Method: as §1

tumor = test: Intravascular contrast enhanced MRI of the tumor after tTF-NGR (FIG. 3); assay type: in vivo; settings: few hours after tTF-NGR application
Excerpt: FIG. 3: illustration of the therapeutic activity and modes of action of tTF-NGR by different imaging techniques. 1. Bluish coloration of the tumor (A, left: tTF-NGR. A, right: vehicle control) few hours after injection of tTF-NGR macroscopically visualizing blood pooling and vascular disruption. 2. Intravascular contrast enhanced Magnetic Resonance Imaging (MRI) of the tumor showing anatomy of the tumors (A, B) and drastic decrease of blood flow from high blood flow (C) to low (D) few hours after tTF-NGR application. The vascular volume fraction was quantified to decrease>1 log. 3. H&E staining of sarcoma xenograft tissue (A, thrombosis, blood pooling and vascular disruption after tTF-NGR; B, saline control with normal vasculature). 4. In vivo fluorescence reflectance imaging showing the vascular anatomy by intravascular fluorescent fibrin after tTF-NGR (B). A, before tTF-NGR; B, 1 hour after tTF-NGR; C, vascular disruption 24 hours after tTF-NGR.

[5] = Toxicity evaluation according to EU-guidelines S6 and S9; assay type: in vivo; settings: most sensitive species (mouse)
Excerpt: tTF-NGR was produced using E. coli via a clinical-grade production process and a 4-step HPLC purification. The production process and the GMP facility are approved by the regional government (Manufacturer's Authorisation by Regierungspräsidium) and the federal Paul Ehrlich-Institute (PEI). Toxicity evaluation according to EU-guidelines S6 and S9 in mouse, rat, guinea pigs, and dogs has been completed.

[6] = tested on: tumor blood flow (intratumoral blood circulation); test: Clinical phase I study of tTF-NGR: tumor blood flow by CEUS and MRI; assay type: in vivo, human; settings: patients
Method: as §2, §3

T1 sequence (P15144 whole entry): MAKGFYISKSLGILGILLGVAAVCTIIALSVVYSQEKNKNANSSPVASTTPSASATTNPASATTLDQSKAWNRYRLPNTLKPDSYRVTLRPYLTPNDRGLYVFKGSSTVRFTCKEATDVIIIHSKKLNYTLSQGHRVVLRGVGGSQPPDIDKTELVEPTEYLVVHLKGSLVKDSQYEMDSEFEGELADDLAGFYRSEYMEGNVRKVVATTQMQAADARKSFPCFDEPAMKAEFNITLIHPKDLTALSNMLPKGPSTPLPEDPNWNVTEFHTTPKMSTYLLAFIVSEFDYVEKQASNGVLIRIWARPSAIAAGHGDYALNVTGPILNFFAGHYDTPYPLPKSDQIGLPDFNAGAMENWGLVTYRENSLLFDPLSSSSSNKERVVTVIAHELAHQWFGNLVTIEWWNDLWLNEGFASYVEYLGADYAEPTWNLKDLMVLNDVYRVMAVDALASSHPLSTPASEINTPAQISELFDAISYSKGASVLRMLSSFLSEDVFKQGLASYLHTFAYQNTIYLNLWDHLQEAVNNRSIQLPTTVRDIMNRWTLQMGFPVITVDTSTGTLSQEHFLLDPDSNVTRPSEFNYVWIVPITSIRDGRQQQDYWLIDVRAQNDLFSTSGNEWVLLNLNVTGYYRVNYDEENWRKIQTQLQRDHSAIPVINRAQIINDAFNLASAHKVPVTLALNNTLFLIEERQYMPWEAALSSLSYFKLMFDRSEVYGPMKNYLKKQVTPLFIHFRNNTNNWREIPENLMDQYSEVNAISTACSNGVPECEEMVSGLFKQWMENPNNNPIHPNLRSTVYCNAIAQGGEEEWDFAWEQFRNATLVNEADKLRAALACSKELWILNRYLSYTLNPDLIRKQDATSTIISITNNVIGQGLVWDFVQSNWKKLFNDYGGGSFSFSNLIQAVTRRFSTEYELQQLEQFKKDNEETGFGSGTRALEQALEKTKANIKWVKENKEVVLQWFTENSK

With `COc1cc2c(cc1O)CCN[C@]21CS[C@@H]2c3c(OC(C)=O)c(C)c4c(c3[C@H](COC1=O)N1[C@@H]2[C@H]2c3c(cc(C)c(OC)c3O)C[C@@H]([C@@H]1O)N2C)OCO4` [Trabectedin] the “PS-positive cells (lower right quadrant)” value (HUVEC; Trabectedin 15 nM, 8 h incubation, 7.21% without Trabectedin, one example experiment) was 29.22%, the “PS upregulation on HUVECs” value (HUVEC; increasing doses, after 8 and 12 h, 7 experiments, P<0.0001 vs non-Trabectedin control) was “PS upregulation” and the “PS upregulation on HT1080 sarcoma cells” value [1] was “significant PS upregulation”.

B1: tTF-NGR: fusion protein of truncated tissue factor (tTF) with C-terminal NGR targeting peptide binding CD13 and N-terminal His-tag, SEQ ID NO: 2 (protein)
chain: MHHHHHHSSGLVPRGSGMKETAAAKFERQHMDSPDLGTDDDDKAMGSGTTNTVAAYNLTWKSTNFKTILEWEPKPVNQVYTVQISTKSGDWKSKCFYTTDTECDLTDEIVKDVKQTYLARVFSYPAGNVESTGSAGEPLYENSPEFTPYLETNLGQPTIQSFEQVGTKVNVTVEDERTLVRRNNTFLSLRDVFGKDLIYTLYYWKSSSSGKKTAKTNTNEFLIDVDKGENYCFSVQAVIPSRTVNRKSTDSPVECMGQEKGEFRGNGRAHA
modifications: His-tTF-NGR fusion protein
In the case of B1, the “effect on tumor growth” value ([2]; independent of tumor histology (melanoma, lung, breast, sarcoma, glioblastoma)) is reported as “tumor growth inhibition and regression”, the resistance development ([2]; repeated rounds of treatment) is reported as “no resistance development” and the “accumulation with repeated cycles” value [3] is reported as “no accumulation”. For the same molecule, the “mean terminal half life” value ([3]; 1-hour iv infusion) was 8.99 h, the adverse event ([4]; at 3 mg/m^2, CTCAE II resolved, patient with angiosarcoma in left atrium) was “transient ischemic attack” and the “kind of dose-limiting toxicity” value ([4]; at 4 mg/m^2/day, fast reversible, no clinical sequelae) was “temporary troponin T hs showed increase”. For the same molecule, the adverse event ([4]; at 4 mg/m^2, CTCAE grade II and resolved) was “central venous catheter-related venous thrombosis”, the adverse event ([4]; at 5 mg/m^2, 1 patient, completely resolved) was “CTCAE grade II lower limb deep vein thrombosis” and the “dose limiting toxicity (DLT) dose” value ([4]; daily 1-hour iv infusions for 5 days, q day 22) was 5 mg/m^2 per day. The “patients with CR or PR” value ([4]; patients treated so far) was “none”, the “human anti-fusion protein antibodies (HAFA)” value ([4]; without clinical symptoms or neutralizing capacity) was “detected in few patients” and the “recommended dose for phase II (RPIID)” value ([4]; x5, q d 22) was 3 mg/m^2/day. The “binding to CD13 on growing EC” value (CD13) was “specifically binds to CD13”, the “decrease of vascular volume fraction” value (tumor) was over 1 log and the limiting toxicity [5] was “pulmonary embolism”. The “blood flow in normal organs” value [6] was “without blood flow decrease in normal organs” and the “tumor blood flow inhibition” value ([6]; up to) was over 1 log-step.
